One block for each molecule: values may come before it.
Molecular target: CXC chemokine receptor (CXCR)3, CXCR3A (UniProt P49682)
UniProt P49682, sequence (P49682 whole entry): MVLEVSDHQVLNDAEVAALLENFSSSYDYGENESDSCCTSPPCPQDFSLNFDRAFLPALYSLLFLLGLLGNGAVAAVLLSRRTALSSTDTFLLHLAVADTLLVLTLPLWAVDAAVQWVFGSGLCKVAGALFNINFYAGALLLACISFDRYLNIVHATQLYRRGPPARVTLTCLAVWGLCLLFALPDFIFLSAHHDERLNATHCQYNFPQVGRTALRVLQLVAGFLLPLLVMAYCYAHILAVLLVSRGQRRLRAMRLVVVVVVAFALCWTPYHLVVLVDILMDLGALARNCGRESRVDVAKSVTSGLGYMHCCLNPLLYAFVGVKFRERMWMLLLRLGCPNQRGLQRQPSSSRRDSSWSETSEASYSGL

increase of [Ca2+]i in Fura-2-loaded CHO/CXCR3A cells stimulated with 3 ng/mL CXCL10 (no GAG): 107 nM
Molecule: CXC chemokine ligand (CXCL)10 (from UniProt P02778 22-98)

increase of [Ca2+]i in Fura-2-loaded CHO/CXCR3A cells stimulated with 3 ng/mL CXCL11 (no GAG): 304 nM
B1: CXC chemokine ligand (CXCL)11 (ligand)
chain: FPMFKRGRCLCIGPGVKAVKVADIEKASIMYPSNNCDKIEVIITLKENKGQRCLNPKSKQARLIIKKVERKNF

increase of [Ca2+]i in Fura-2-loaded CHO/CXCR3A cells stimulated with 1 µg/mL CXCL9 (no GAG): 598 nM
B2: CXC chemokine ligand (CXCL)9 (ligand)
chain: TPVVRKGRCSCISTNQGTIHLQSLKDLKQFAPSPSCEKIEIIATLKNGVQTCLNPDSADVKELIKKWEKQVSQKKKQKNGKKHQKKKVLKVRKSQRSRQKKTT
